Test system: MS2 coat protein
Assay: apparent KD of MS2 coat protein; designed switch direction (-1 OFF switch, 1 ON switch): 1; higher = weaker reporter binding
How it was run: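 Apparent KD, taken as the median over clusters for each design, was obtained by curve-fitting normalised cluster fluorescence. Designed RNA switches had been transcribed on Illumina chips by stalled E. coli RNA polymerase and titrated with SNAP-549-labelled MS2 coat protein, doubling from 0.7 or 1.5 nM to 3 µM.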

[1] = input ligand: microRNA oligo, concentration not stated
[2] = Eterna round: R95, input ligand: FMN 200 uM
[3] = Eterna round: R95, input ligand: microRNA oligo, concentration not stated
[4] = Eterna round: R95, input ligand: none

Sequence	apparent KD of MS2 coat protein (input ligand: FMN 200 uM) [nM]	apparent KD of MS2 coat protein [1] [nM]	apparent KD of MS2 coat protein (input ligand: none) [nM]	apparent KD of MS2 coat protein [2] [nM]	apparent KD of MS2 coat protein [3] [nM]	apparent KD of MS2 coat protein [4] [nM]
ACCCGCGACGGAGGAUAUGGGCACUCGGCGGAAUAAACCGCCAUAACAUGAGGAUCACCCAUGUCCCAGAAGGCCGUCGCAAUC [Zaonesdive] (Eterna round: R96, puzzle: Same State NG 2)	107	303	2620			
GGAAAGAGGUAAGGAUAUGCAUGGCUGGGACAUGAGGAUCACCCAUGUAAUAGAAGAAAUCUAGGGUAGAAGGUACAAGGAAGG [AK SSNG2-V2-9] (Eterna round: R96, puzzle: Same State NG 2)	1110	367	450			
AUAGUUGCCGAAGGAUAUGAUGAGGAUCACCCAUCAGAAGGUUGGCUAUUGGGUGGACAUGAGGAUCACCCAUGUCCUUUGGUA (Eterna round: R96, puzzle: Same State NG 1)	95.1	119	147			
GCUCGACGUAUUGUUUACAUGAGGAUCACCCAUGUAGGUGCGAAGGAUAUCUACGUGUUUCAUGUAGAGAAGGUCGUGUCGAGC [SameState NG3 #92] (Eterna round: R96, puzzle: Same State NG 3)	19.3	42.5	54.1			
AAAAAACAUGAGGAUCACCCAUGUCAAAAGACAUGAGGAUAUGUACAGACUUCGGUCUGUACAGAAGGCAUGAAAA [salish99_ss1_r3_093] (puzzle: Same State 1)				32.2	570	528
GCUCGUACGAUGACCGACAUGAGGAUCACCCAUGUGUGUCGGUAGGAUAUCUAUAUUAAGGAUUUAGAGAAGGGCCCAACGAGC [SameState NG3 #19] (Eterna round: R96, puzzle: Same State NG 3)	63.3	66.5	82			
AUUCGUUUGAUAGGAUAUCACUUUACAUGAGGAUCACCCAUGUUCACCACGCUGGUCCCUUAUACUGAGAAGGAUCUUGAUGAC [JR_SSNG2_Sub008] (Eterna round: R96, puzzle: Same State NG 2)	107	64.5	95.7			
AAGAGGUCCGCAGGAUAUACCCGGGCUCGCCGGGUAGAAGGGUGAACCUCAUAACCCACCACACACAUGAGGAUCACCCAUGUA [Tedile] (Eterna round: R96, puzzle: Same State NG 1)	113	219	4.57			
AGAAAACAUGAGGAUCACCCAUGUAUAGUGAAUACAGGAUAUCACCGGCUGAAAAGCCGGUGAGAAGGGUGAUCGC [Atorenri] (puzzle: Same State 1)				149	18.6	7.7
CUACGAGCGCCACAGGAUAUACUGAGACUCACAUGAGGAUCACCCAUGUCCAAUUCUCCCAAAUAGUAGAAGGGUGACGCGCUCG [Maenve] (Eterna round: R96, puzzle: Same State 2)	35.5	426	562			
GCUCGAAUCAGAACCAACAUGAGGAUCACCCAUGUGUGUUGGUAGGAUAUCGUUUCUAAGAGAAACGAGAAGGGCCGAACGAGC [SameState NG3 #6] (Eterna round: R96, puzzle: Same State NG 3)	41	52.3	75.7			
AGAUGUUAAUUAGGAUAUGGGCACAUGAGGAUCACCCAUGUAACGUAGAUACGAUGUGGUCAAGUCUAGAAGGGAUAGCUAACA [SameState NG2 #77] (Eterna round: R96, puzzle: Same State NG 2)	72.5	59.3	70.6			
GCCGCGUUUCGCGCCUACAUGAGGAUCACCCAUGUUUGUAGGCAGGAUAUCGUCCGCUCUGCGGGCGAGAAGGGCUGUUGUGGG [salish99_SSNG3_R04_023] (Eterna round: R96, puzzle: Same State NG 3)	214	139	179			
AAAAGACAUGAGGAUCACCCAUGUAUGAAAAGUACAGGAUAUCACGAGCUAAGAAGCGAGUGAGAAGGGUGAAAAU [Sogedi] (puzzle: Same State 1)				519	69.1	109
UAAAUAAUGUAAGGAUAUACAUGAGGAAUUCUCGUAGAAGGUACAUGACAUGAGGAUCACCCAUGUAUCGCUCAGUAGAGCGUA [Mat - Same State NG 1 - JL mod - D27] (Eterna round: R96, puzzle: Same State NG 1)		48.3				
AUUGCUUACGCAGGAUAUGAUGCGAAAAUUGCGUCAGAAGGGUGAAGUGACUCAUUGCAACAGGACAUGAGGAUCACCCAUGUC [SameState NG1 #90] (Eterna round: R96, puzzle: Same State NG 1)	184	305	708			

Sequence	apparent KD of MS2 coat protein (input ligand: FMN 200 uM) [nM]	apparent KD of MS2 coat protein [1] [nM]	apparent KD of MS2 coat protein (input ligand: none) [nM]	apparent KD of MS2 coat protein [2] [nM]	apparent KD of MS2 coat protein [3] [nM]	apparent KD of MS2 coat protein [4] [nM]
UUUAGGAACGGGCAGGAUAUGUAUUAAAAUACAUGAGGAUCACCCAUGUGCGGGUAUAACACCCGACAGAAGGGCCAAUCGUUCC [Laonerce - 9] (puzzle: Same State 2)				22.7	170	231
AUAUGAGGAGCAGGAUAUGCGGAGAAGAAAGAAGCAGAAGGGCUCAUGGGACGACAUGAGGAUCACCCAUGUGCUCCGCGAUGA [AK SSNG1-V2-4] (Eterna round: R96, puzzle: Same State NG 1)	69.9	29.5	328			
AACCCACAUGAGGAUCACCCAUGUGUCUGAGGCACAGGAUAUCGACAGGCAAGACACCUGCGAGAAGGGUGACCUC [Same State 1 - Mod of Vinnie Diatater v.1] (puzzle: Same State 1)				18.4	8.17	27.9
AACAAUCUAUUUGAGGAUAUCAUGAAAUAAACAUGAGGAUCACCCAUGUGCAGGAAAACUGCAUAUGAGAAGGCAGAUAGAUUGA [salish99_ss2_r3_025] (puzzle: Same State 2)				25.4	30.2	24.1
GUAGCAUACCGAGGAUAUUCAUAUAAUAACAUGAGGAUCACCCAUGUUUAUAGGCGAAAGCCUUGGGAGAAGGCGGAAUGCUAC [Xeonanis - 20 Mod63] (Eterna round: R96, puzzle: Same State NG 2)	10.4	12.3	18.8			
GAGUGGAAGUAAGGAUAUAUAAUGAUAAUCACAGUAGAAGGUACUAACAUGAGGAUCACCCAUGUAGGACUAUACCAGAGAGGG [Parity 44 - Jieux - Same State NG 1] (Eterna round: R96, puzzle: Same State NG 1)		12.3				
CCGUUCAAUAAACAUGAGGAUCACCCAUGUGAUAAUAAGGGUGAGGAUAUGCAUCUGAAACAGGUGCAGAAGGCAUAAGAGCGG [JL SSNG3 3.91] (Eterna round: R96, puzzle: Same State NG 3)	327	169	316			
UUAAUAAUGUUAGGAUAUACAUGAGGAAUCCUCGUAGAAGGAACAUGACAUGAGGAUCACCCAUGUAGCGCUCCGAAGAGCGCA [Mat - Same State NG 1 - JL mod - D46] (Eterna round: R96, puzzle: Same State NG 1)	254	115	161			
AGAAAACAUGAGGAUCACCCAUGUAGAAAUAUGGGAGGAUAUACAAAGACGAAAGUCGAGGUAGAAGGCCUAAAGA [Mat - Same State 1 - Meechl mod - D122] (Eterna round: R96, puzzle: Same State 1)		77.9				
GCGGAGAGGUAAGGAUAUCCAUGGCAUAGACAUGAGGAUCACCCAUGUAGGAGACGAAUUAGAAGGGAGAAGGUACCGGGACGC [AK SSNG2-V2-19] (Eterna round: R96, puzzle: Same State NG 2)	175	111	168			
GCUGCAAGGGCAGGAUAUGGGUUCAGAGCAGAAGUGCGCUUUGAUACAUGAGGAUCACCCAUGUCCCAGAAGGGCCCAAGCGGC [Veribe] (Eterna round: R96, puzzle: Same State NG 2)	17.7	98.3	159			
GUGGAGGGUUGAGGAUAUUGAAUACAUAUGUUUAACAUGAGGAUCACCCAUGUGGGUUGCGGUAUCGAGAAGGUAAGUUGCUGG [salish99_SSNG2_r04_038] (Eterna round: R96, puzzle: Same State NG 2)	105	94.2	89.3			
UCUUGGUUUUUGCUCGUUUUUUGUGUUGAACAUGAGGAUCACCCAUGUAUUGUACGGUCCAGUUUGAUAGUGGUCCG [JMF 33] (puzzle: Sensor for hsa-mir-208a)				25.6	13.6	29.9
AUGCCAAAGCGAGGAUAUGGAGCCUUAUUGGCUCCAGAAGGUGUGACAUGAGGAUCACCCAUGUGGCAGUGGUCUAAUGACCAC [Eli NG1ss - 41] (Eterna round: R96, puzzle: Same State NG 1)	63.3	64.6	86.7			
AAACAUGAGCGAGGAUAUACAUGAGGAUCACCCGUAGAAGGCGCAUGUAAAACAACAUGAGGAUCACCCAUGUCAUGUACAUGA [Same State NG1 S1] (Eterna round: R96, puzzle: Same State NG 1)	61.5	55	66.9			

Source: the supplement of paper PMC9170038
